# Data from publication PMC5880107, “The Sequence-specific Peptide-binding Activity of the Protein Sulfide Isomerase AGR2 Directs Its Stable Binding to the Oncogenic Receptor EpCAM*^([image sbox.jpg])” (Molecular & Cellular Proteomics : MCP, 2018).
# B1: wt-peptide PTTIYY (non-biotinylated hexapeptide) / His-AGR2 WT (mature AGR2, amino acids 21-175, N-terminal 6xHis tag; plasmid pmAGR2) [human] (parent complex)
# chain 1: PTTIYY
# chain 2: RDTTVKPGAKKDTKDSRPKLPQTLSRGWGDQLIWTQTYEEALYKSKTSSKPLMIIHHLDECPHSQALKKVFAENKEIQKLAEQFVLLNLVYETTDKHLSPDGQYVPRIMFVDPSLTVRADITGRYSNRLYAYEPADTALLLDNMKKALKLLKTEL
# B2: His-AGR2 WT (mature AGR2, amino acids 21-175, N-terminal 6xHis tag; plasmid pmAGR2) [human] / His-EpEX-CO, extracellular domain of EpCAM (amino acids 24-265), N-terminal 6xHis tag [human] (parent complex)
# chain 1: B1 chain 2
# chain 2: QEECVCENYKLAVNCFVNNNRQCQCTSVGAQNTVICSKLAAKCLVMKAEMNGSKLGRRAKPEGALQNNDGLYDPDCDESGLFKAKQCNGTSMCWCVNTAGVRRTDKDTEITCSERVRTYWIIIELKHKAREKPYDSKSLRTALQKEITTRYQLDPKFITSILYENNVITIDLVQNSSQKTQNDVDIADVAYYFEKDVKGESLFHSKKMDLTVNGEQLDLDPGQTLIYYVDEKAPEFSMQGLK
# Variants of: B1
# Assay: competition ELISA (AGR2 binding to immobilised biotinylated peptide A4 with free competitor peptide); 1 μg AGR2; 100 ng competitor peptide; RLU is AGR2 bound to peptide A4, so lower RLU = stronger competitor binding; DMSO (no competitor) est. 79; read off a plot
row,Variant,response [RLU]
1,chain 1 PTTIYA [chain 1 Y6A],~60
2,chain 1 PTTIYF [chain 1 Y6F],~25
3,chain 1 PTTIAY [chain 1 Y5A],~84
4,chain 1 PTTIWY [chain 1 Y5W],~20
5,chain 1 PTTIFY [chain 1 Y5F],~40
6,chain 1 PATIYY [chain 1 T2A],~84
7,chain 1 PCTIYY [chain 1 T2C],~80
8,chain 1 PSTIYY [chain 1 T2S],~83
9,chain 1 ITTIYY [chain 1 P1I],~7.5
10,chain 1 GTTIYY [chain 1 P1G],~7.5
11,chain 1 LTTIYY [chain 1 P1L],~15
12,chain 1 ATTIYY [chain 1 P1A],~6
13,chain 1 FTTIYY [chain 1 P1F],~6
14,chain 1 WTTIYY [chain 1 P1W],~9
15,chain 1 VTTIYY [chain 1 P1V],~11
16,chain 1 MTTIYY [chain 1 P1M],~17
17,chain 1 PTLIYY [chain 1 T3L],~66
18,chain 1 PTGIYY [chain 1 T3G],~12
19,chain 1 PTSIYY [chain 1 T3S],~7
20,chain 1 PTIIYY [chain 1 T3I],~75
21,chain 1 PTVIYY [chain 1 T3V],~35
22,chain 1 PTAIYY [chain 1 T3A],~6
23,chain 1 PTMIYY [chain 1 T3M],~8
24,chain 1 PTTMYY [chain 1 I4M],~80
25,chain 1 PTTVYY [chain 1 I4V],~55
26,chain 1 PTTAYY [chain 1 I4A],~83
27,chain 1 PTTLYY [chain 1 I4L],~44

# Variants of: B2
# Assay: ELISA (His-EpCAM solid phase; His-AGR2 mobile phase); point at 0.5 μg AGR2 (highest dose of the titration); no DTT; read off a plot
row,Variant,response [RLU]
1,chain 1 RDTTVKPGAKKDTKDSRPKLPQTLSRGWGDQLIWTQTYEEALYKSKTSSKPLMIIHHLDECPHSQALKKVFAENKEIQKLAEQFVLLNLVYETTDKHLSPDGQYVPRIMFVAPSLTVRADITGRYSNRLYAYEPADTALLLDNMKKALKLLKTEL [chain 1 D112A],~140
2,chain 1 RDTTVKPGAKKDTKDSRPKLPQTLSRGWGDQLIWTQTYEEALYKSKTSSKPLMIIHHLDECPHSQALKKVFAENKEIQKLAEQFVLLNLVYETTDKHLSPDGQYVPRIMFVDPALTVRADITGRYSNRLYAYEPADTALLLDNMKKALKLLKTEL [chain 1 S114A],~160
3,chain 1 RDTTVKPGAKKDTKDSRPKLPQTLSRGWGDQLIWTQTYEEALYKSKTSSKPLMIIHHLDECPHSQALKKVFAENKEIQKLAEQFVLLNLVYETTDKHLSPDGQYVPRIMFVDASLTVRADITGRYSNRLYAYEPADTALLLDNMKKALKLLKTEL [chain 1 P113A],~150

# Variants of: B2
# Assay: ELISA (His-EpCAM solid phase; His-AGR2 mobile phase); point at 0.5 μg AGR2 (highest dose of the titration); 1 mm DTT at the AGR2-binding stage; read off a plot
row,Variant,response [RLU]
1,chain 1 RDTTVKPGAKKDTKDSRPKLPQTLSRGWGDQLIWTQTYEEALYKSKTSSKPLMIIHHLDECPHSQALKKVFAENKEIQKLAEQFVLLNLVYETTDKHLSPDGQYVPRIMFVAPSLTVRADITGRYSNRLYAYEPADTALLLDNMKKALKLLKTEL [chain 1 D112A],~110
2,chain 1 RDTTVKPGAKKDTKDSRPKLPQTLSRGWGDQLIWTQTYEEALYKSKTSSKPLMIIHHLDECPHSQALKKVFAENKEIQKLAEQFVLLNLVYETTDKHLSPDGQYVPRIMFVDPALTVRADITGRYSNRLYAYEPADTALLLDNMKKALKLLKTEL [chain 1 S114A],~160
3,chain 1 RDTTVKPGAKKDTKDSRPKLPQTLSRGWGDQLIWTQTYEEALYKSKTSSKPLMIIHHLDECPHSQALKKVFAENKEIQKLAEQFVLLNLVYETTDKHLSPDGQYVPRIMFVDASLTVRADITGRYSNRLYAYEPADTALLLDNMKKALKLLKTEL [chain 1 P113A],~35
